# From patent US20220168400A1, “USE OF A MANGANESE SUPEROXIDE DISMUTASE WITH HIGH STABILITY IN THE PREVENTION OR TREATMENT OF CEREBRAL STROKE” (CARRY HEALTH BIOPHARMACEUTICALS (HANGZHOU) CO., LTD., priority 2019, published 2022)
# Where “and” joins values, the source holds several entries; their conditions need not be identical. Equal values may be shown once.
# B1: MS-SOD: manganese superoxide dismutase with high stability, gene from Thermus thermophilus HB27 expressed in E. coli; amino acid sequence SEQ ID NO: 4 (protein)
# chain: MPYPFKLPDLGYPYEALEPHIDAKTMEIHHQKHHGAYVTNLNAALEKYPYLHGVEVEVLLRHLAALPQDIQTAVRNNGGGHLNHSLFWRLLTPGGAKEPVGELKKAIDEQFGGFQALKEKLTQAAMGRFGSGWAWLVKDPFGKLHVLSTPNQDNPVMEGFTPIVGIDVWEHAYYLKYQNRRADYLQAIWNVLNWDVAEEFFKKA
# modifications: Amino acid sequence for MS-SOD
# Experiments:
# Format in all cases: in vivo
# [1] = test system: middle cerebral artery occlusion (MCAO) model in C57BL/6J mice; assay: Cerebral infarction area in middle cerebral artery occlusion (MCAO) model (TTC staining); details: vs model group
# Text: Male C57BL/6J wild-type mice were all purchased from Guangdong Experimental Animal Center. The male C57BL/6J wild-type mice were 8 weeks old, when they were subjected to establish middle cerebral artery occlusion (MCAO) model.
# (§1) (3) MS-SOD1 group (10 mice): mice aged 4 weeks were fed with drinking water supplemented with MS-SOD for 4 weeks (3 U/day/g body weight), and then subjected to establish middle cerebral artery occlusion model;
# (§2) (4) MS-SOD2 group (10 mice): after establishing middle cerebral artery occlusion model, the mice were intragastrically administered with MS-SOD 600 U once when they waked up from the anesthesia. […]
# At 24 hours after MCAO model establishment, the head was cut off and the brain was taken after anesthesia. […] The infarction area of each territory was measured by ImageJ software. […] The total infarction area was calculated by integrating the infarction territories between sections.
# (§3) Finally, the differences of different intervention conditions and MCAO model establishment on the degree of cerebral injury and neurological severity in mice were analyzed. All data were expressed as mean ±standard deviation. […]
# [2] = test system: middle cerebral artery occlusion (MCAO) model in C57BL/6J mice; assay: Modified neurological severity score in MCAO model; details: vs model group
# Protocol: as §1, §2
# The procedure was performed on each group of mice. […] The mice in groups 2-4 were scored by double blind method.
# as §3
# [3] = test system: cerebral ischemia model in Albino strain zebrafish; assay: Ponatinib-induced cerebral ischemia model in zebrafish; details: for Number of zebrafish with cerebral ischemia / Incidence of cerebral ischemia: n = 20; for Incidence of cerebral ischemia: model control 100%
# Protocol: Melanin allele mutated Albino strain zebrafish at 2 days post fertilization (2 dpf) was administered with an aqueous ponatinib solution (1 μg/mL) for 18 hours to establish a cerebral ischemia model in zebrafish. 180 melanin allele mutated Albino strain zebrafishes at 2 days post fertilization (2 dpf) were randomly selected. 30 zebrafishes were treated in each well (experiment group), and aqueous MS-SOD solutions with concentrations of 222, 667 and 2000 μg/mL were administrated respectively, the concentration of positive control drug aspirin was 50 μg/m L, and the normal control group and the model control group were set at the same time. The volume of each well was 3 mL. After MS-SOD treatment for a period of time, except for the normal control group, all the other experiment groups were simultaneously administrated with aqueous ponatinib solution to induce the cerebral ischemia model in zebrafish. After 18 hours of co-treatment with MS-SOD and ponatinib, 20 fish were randomly selected from each well and stained with o-Dianisidine. After staining, photos were taken and data were collected to count the number of zebrafish with cerebral ischemia and calculate the incidence of cerebral ischemia in zebrafish of each experiment group.
# [4] = test system: cerebral hemorrhage model in wild-type AB strain zebrafish; assay: Blood flow volume in simvastatin-induced cerebral hemorrhage model in zebrafish; details: for Blood flow volume (mean ± SE): n = 10, model control 0.13, normal control 0.30 nL/s
# Protocol: 3 dpf wild-type AB strain zebrafish was administered with an aqueous simvastatin solution (0.5 μM) for 18 hours to establish a cerebral hemorrhage model in zebrafish. 180 wild-type AB strain zebrafishes at 3 days post fertilization (3 dpf) were randomly selected and put in a six-well plate, 30 per well (experiment group). Aqueous MS-SOD solutions with concentrations of 222, 667 and 2000 μg/mL were administrated respectively, the concentration of positive control drug icariin was 30 μM, and the normal control group (the zebrafishes were treated with water for fish) and the model control group were set at the same time. The volume of each well was 3 mL. After treatment of zebrafishes with samples for 4 hours, except for the normal control group, the other experiment groups were treated with simvastatin for 18 hours to establish the cerebral hemorrhage model. After the treatment, 10 zebrafishes from each group were randomly selected and placed in a heart rate and blood flow analysis system to record blood flow video of zebrafish, and analyze the blood flow volume (O) of zebrafish. The statistical significance of the blood flow volume was used to evaluate the improvement effect of MS-SOD on blood flow volume of cerebral hemorrhage. The formula of the improvement effect of MS-SOD on blood flow volume of cerebral hemorrhage was as follows: [formula] Statistical analysis was performed using variance analysis and Dunnett's T-test, and p<0.05 indicated a significant difference. 4.
molecule,measurement,setting,value
B1,area of cerebral injury,"[1]; MS-SOD1 group: 3 U/day/g body weight for 4 weeks before MCAO, P=0",significantly reduced
same,area of cerebral injury,"[1]; MS-SOD2 group: 600 U intragastrically once after MCAO, P=0.015",significantly reduced
same,neurological severity score,"[2]; MS-SOD1 group: 3 U/day/g body weight for 4 weeks before MCAO, P=0.281",not significantly improved
same,neurological severity score (mNSS),"[2]; MS-SOD2 group: 600 U intragastrically once after MCAO, P=0.05",significantly reduced
same,Improvement effect on cerebral ischemia,[3]; MS-SOD 222 μg/mL,60%
same,Number of zebrafish with cerebral ischemia,[3]; MS-SOD 222 μg/mL,8
same,Incidence of cerebral ischemia,[3]; MS-SOD 222 μg/mL,40%
same,Improvement effect on cerebral ischemia,[3]; MS-SOD 667 μg/mL,65%
same,Number of zebrafish with cerebral ischemia,[3]; MS-SOD 667 μg/mL,7
same,Incidence of cerebral ischemia,[3]; MS-SOD 667 μg/mL,35%
same,Improvement effect on cerebral ischemia,[3]; MS-SOD 2000 μg/mL,55%
same,Number of zebrafish with cerebral ischemia,[3]; MS-SOD 2000 μg/mL,9
same,Incidence of cerebral ischemia,[3]; MS-SOD 2000 μg/mL,45%
same,Blood flow volume improvement effect,[4]; MS-SOD 222 μg/mL,59%
same,Blood flow volume (mean ± SE),[4]; MS-SOD 222 μg/mL,0.23 nL/s and 0.23 ± 0.014 nL/s
same,Blood flow volume improvement effect,[4]; MS-SOD 667 μg/mL,71%
same,Blood flow volume (mean ± SE),[4]; MS-SOD 667 μg/mL,0.25 nL/s and 0.25 ± 0.024 nL/s
same,Blood flow volume improvement effect,[4]; MS-SOD 2000 μg/mL,71%
same,Blood flow volume (mean ± SE),[4]; MS-SOD 2000 μg/mL,0.25 nL/s and 0.25 ± 0.019 nL/s
